The target of one data set is SNAP–FZD5 (UniProt Q13467). The experiment in a line: FZD5-dependent recruitment of DEP-GFP to the plasma membrane, cells scored by fluorescence microscopy. Conditions: HEK293T cells, 100 cells scored in each case, read off a plot; for other: % of cells with no FZD5 recruitment: parent: est. 12; for other: % of cells with weak FZD5 recruitment: parent: est. 36; for other: % of cells with strong FZD5 recruitment: parent: est. 52.

Data set [1] concerns the molecule itself. The experiment in a line: SEC-MALS; phosphate-buffered saline, GE Superdex S-200 10/300 analytical column; unfractionated purified Lip–DEP. Background: SEC sorts molecules by how far they enter the pores of the column.
Data set [2] concerns the molecule itself. The experiment in a line: SEC-MALS; not shown; tetramerisation of the K446M DEP domain.
Data set [3] addresses T1, DVL2 PDZ domain (PDZ_(265-361)), wt, 15N-labelled (human, UniProt O14641 265-361, 15N-labelled).
T1 construct: Dishevelled 2 (DVL2), human, PDZ domain, residues 265-361; Tag was followed by the linker ENLYFQS (TEV site); also called wt 15N-PDZ; minimal PDZ domain of DVL2; source: E. coli BL21-CodonPlus(DE3)-RIL, purified (NiNTA), Lip tag cleaved with TEV protease; not shown: His6, N-terminal, cleaved; Lip, N-terminal, cleaved
T1 sequence (looked up): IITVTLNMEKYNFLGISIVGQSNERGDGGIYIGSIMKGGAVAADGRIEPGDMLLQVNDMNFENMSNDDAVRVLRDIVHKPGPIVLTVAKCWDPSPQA
The experiment in a line: NMR titration; 1H-15N correlation spectra (fast-HSQC or BEST-TROSY) of 100 µM 15N-PDZ alone or with 3x molar excess (300 µM) of DVL-C or Lip–FZD peptide; 298 K, aqueous phosphate buffer at physiological ionic strength, pH 6.7. Conditions: both partners purified.

Changes are numbered by the printed parent chain. In names and notes the source's numbering stands. Several values for one entry are separate records, joined by “and”; a condition that tells them apart may be missing. Identical values can stand only once.

SNAP–FZD5, sequence (Q13467 27-585): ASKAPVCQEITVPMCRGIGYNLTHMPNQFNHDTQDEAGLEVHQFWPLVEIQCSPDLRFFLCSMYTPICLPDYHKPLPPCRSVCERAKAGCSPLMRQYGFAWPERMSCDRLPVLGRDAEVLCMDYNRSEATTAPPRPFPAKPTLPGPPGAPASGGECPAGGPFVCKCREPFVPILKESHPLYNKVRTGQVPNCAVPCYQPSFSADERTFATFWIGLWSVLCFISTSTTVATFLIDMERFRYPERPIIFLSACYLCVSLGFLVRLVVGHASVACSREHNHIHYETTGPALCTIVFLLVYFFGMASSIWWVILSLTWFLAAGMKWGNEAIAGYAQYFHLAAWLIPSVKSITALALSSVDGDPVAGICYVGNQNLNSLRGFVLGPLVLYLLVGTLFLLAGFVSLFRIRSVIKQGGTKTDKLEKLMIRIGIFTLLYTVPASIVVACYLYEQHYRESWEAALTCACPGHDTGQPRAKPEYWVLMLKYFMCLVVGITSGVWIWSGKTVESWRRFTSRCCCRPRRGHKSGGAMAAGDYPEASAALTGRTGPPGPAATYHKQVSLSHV

Take “DEP–GFP, wt (minimal DEP domain of DVL2) (from UniProt O14641) I447F”: in the data set with SNAP–FZD5, the other: % of cells with no FZD5 recruitment was 8 % of cells, the other: % of cells with weak FZD5 recruitment was 34 % of cells and the other: % of cells with strong FZD5 recruitment was 58 % of cells.
For “DEP–GFP, wt (minimal DEP domain of DVL2) (from UniProt O14641) I447M”, in that order: 7 % of cells, 41 % of cells and 52 % of cells.
For “DEP–GFP, wt (minimal DEP domain of DVL2) (from UniProt O14641) I447T”, in the data set with SNAP–FZD5, the other: % of cells with no FZD5 recruitment was 7 % of cells, the other: % of cells with weak FZD5 recruitment was 32 % of cells and the other: % of cells with strong FZD5 recruitment is 61 % of cells.
Regarding “DEP–GFP, wt (minimal DEP domain of DVL2) (from UniProt O14641) K446M”, in the data set with SNAP–FZD5, the other: % of cells with no FZD5 recruitment was 75 % of cells, the other: % of cells with weak FZD5 recruitment is 22 % of cells and the other: % of cells with strong FZD5 recruitment was 3 % of cells.
In the case of “DEP–GFP, wt (minimal DEP domain of DVL2) (from UniProt O14641) L445E”, in the data set with SNAP–FZD5, the other: % of cells with no FZD5 recruitment is 80 % of cells and the other: % of cells with weak FZD5 recruitment was 20 % of cells.

B1: Lip–DEP_(417-511), DVL2 DEP domain, wt (domain or fragment, human, UniProt O14641 417-511, looked up)
chain: LSVHTDMASVTKAMAAPESGLEVRDRMWLKITIPNAFLGSDVVDWLYHHVEGFPERREARKYASGLLKAGLIRHTVNKITFSEQCYYVFGDLSGG
notes: Dishevelled 2 (DVL2), human, DEP domain, residues 417-511; Between the 6xHis-Lip tag and the domain stands the linker ENLYFQS (TEV site); also called wt DEP domain; DVL2 DEP_(417-511); source: E. coli BL21-CodonPlus(DE3)-RIL, purified (NiNTA); not shown: Lip, N-terminal, kept
In general, stoichiometry N refers to a count of units in the complex or per binding partner. In the case of B1, the “stoichiometry N” value in data set [1] is 2 and 4.

B2: Lip–DEP_(417-511) I447M (domain or fragment, human, UniProt O14641 417-511, looked up)
chain: B1 chain with I31M
notes: Dishevelled 2 (DVL2), human, DEP domain, residues 417-511, with I447M; also called tetramerisation mutant; source: E. coli BL21-CodonPlus(DE3)-RIL, purified (NiNTA)
On to B2, for which, in data set [1], the “stoichiometry N” value was 2.

B3: Lip–DEP_(417-511) I447F (domain or fragment, human, UniProt O14641 417-511, looked up)
chain: B1 chain with I31F
notes: Dishevelled 2 (DVL2), human, DEP domain, residues 417-511, with I447F; also called tetramerisation mutant; source: E. coli BL21-CodonPlus(DE3)-RIL, purified (NiNTA)
Turning to B3, the “stoichiometry N” value in data set [1] turned out to be 2.

B4: Lip–DEP_(417-511) K446M (domain or fragment, human, UniProt O14641 417-511, looked up)
chain: B1 chain with K30M
notes: Dishevelled 2 (DVL2), human, DEP domain, residues 417-511, with K446M; source: E. coli BL21-CodonPlus(DE3)-RIL, purified (NiNTA)
On to B4, for which the “stoichiometry N” value in data set [2] was determined as 4.

B5: Lip–DEP_(417-511) I447T (domain or fragment, human, UniProt O14641 417-511, looked up)
chain: B1 chain with I31T
notes: Dishevelled 2 (DVL2), human, DEP domain, residues 417-511, with I447T; also called tetramerisation mutant; source: E. coli BL21-CodonPlus(DE3)-RIL, purified (NiNTA)
Regarding B5, the “stoichiometry N” value in data set [1] is 2.

B6: C-terminal peptide from Dvl1 (DVL-C) (peptide)
peptide: SEFFVDVM
notes: C-terminal peptide of Dishevelled 1 (Dvl1); Lee et al., 2015; also called DVL-C peptide; source: kindly provided by Jie Zheng (University of California, Los Angeles)
As to B6, the binding result in data set [3] is “binds”.
